Assay in all cases: FCM or ELISA, graded summary
Assay [1] deals with T1, human CD3D/E protein (human, UniProt P04234 22-105; P07766 23-126).
T1 construct: also called human CD3 expressing Jurkat cells

Assay [2] deals with T2, human CD137 protein (human, UniProt Q07011 24-186).
T2 construct: also called human CD137 expressing CHO cells

Assay [3] deals with human PD-L1 protein (human, UniProt Q9NZQ7 19-238).
The target of assay [4] is T3, human BCMA protein (human, UniProt Q02223 1-54).
T3 construct: also called human BCMA expressing NCI-H929 cells; human BCMA overexpressing HEK293 cells
T3 sequence (looked up): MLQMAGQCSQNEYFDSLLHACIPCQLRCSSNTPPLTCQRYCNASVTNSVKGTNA

T1 sequence (P04234 22-105, chain 1 of 2): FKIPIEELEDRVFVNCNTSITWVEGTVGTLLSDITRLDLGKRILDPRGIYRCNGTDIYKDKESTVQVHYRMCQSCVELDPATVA
T1 sequence (P07766 23-126, chain 2 of 2): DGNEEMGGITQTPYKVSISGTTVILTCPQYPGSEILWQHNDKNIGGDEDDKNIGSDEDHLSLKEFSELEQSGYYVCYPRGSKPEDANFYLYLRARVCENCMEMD
T2 sequence (Q07011 24-186 limits assumed): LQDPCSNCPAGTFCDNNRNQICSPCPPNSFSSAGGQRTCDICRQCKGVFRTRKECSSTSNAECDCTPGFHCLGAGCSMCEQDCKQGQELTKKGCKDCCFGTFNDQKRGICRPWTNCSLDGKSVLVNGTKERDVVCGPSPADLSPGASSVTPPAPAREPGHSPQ
Sequence of human PD-L1 protein (Q9NZQ7 19-238 limits assumed): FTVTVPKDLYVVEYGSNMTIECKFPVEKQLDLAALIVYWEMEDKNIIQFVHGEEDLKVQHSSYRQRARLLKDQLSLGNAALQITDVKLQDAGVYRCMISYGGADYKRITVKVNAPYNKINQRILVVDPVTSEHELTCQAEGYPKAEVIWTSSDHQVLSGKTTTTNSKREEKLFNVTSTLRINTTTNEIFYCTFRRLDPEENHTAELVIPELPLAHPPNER

B1: Ly3096 (BCMA/CD3/CD137) (other)
heavy 1: QLQLQESGPGLVKPSETLSLTCTVSGGSISSGSYFWGWIRQPPGKGLEWIGSIYYSGITYYNPSLKSRVTISVDTSKNQFSLKLSSVTAADTAVYYCARHDGAVAGLFDYWGQGTLVTVSSASTKGPSVFPLAPSSKSTSGGTAALGCLVKDYFPEPVTVSWNSGALTSGVHTFPAVLQSSGLYSLSSVVTVPSSSLGTQTYICNVNHKPSNTKVDKKVEPKSCGGGGSGGGGSGGGGSGGGGSEVQLVESGGGLVQPGGSLRLSCAASGFTFSTYAMNWVRQAPGKGLEWVGRIRSKYNNYATYYADSVKGRFTISRDDSKNSLYLQMNSLKTEDTAVYYCVRHGNFGNSYVSWFAYWGQGTLVTVSSGGGGSDKTHTCPPCPAPELLGPSVFLFPPKPKDTLMISRTPEVTCVVVDVSHEDPEVKFNWYVDGVEVHNAKTKPREEQYNSTYRVVSVLTVLHQDWLNGKEYKCKVSNKALGAPIEKTISKAKGQPREPQVYTLPPSREEMTKNQVSLWCLVKGFYPSDIAVEWESNGQPENNYKTTPPVLDSDGSFFLYSKLTVDKSRWQQGNVFSCSVMHEALHNHYTQKSLSLSPGKGGGGSGGGGSGGGGSGGGGSQVQLVQSGAEVKKPGASVKVSCKASGYTFAGFEMHWVRQAPGQGLEWMGAIDPKTGGTDYNQKFKDRVTMTRDTSISTAYMELSRLRSDDTAVYYCARDLGYFDVWGQGTLVTVSS
heavy 2: QLQLQESGPGLVKPSETLSLTCTVSGGSISSGSYFWGWIRQPPGKGLEWIGSIYYSGITYYNPSLKSRVTISVDTSKNQFSLKLSSVTAADTAVYYCARHDGAVAGLFDYWGQGTLVTVSSASTKGPSVFPLAPSSKSTSGGTAALGCLVKDYFPEPVTVSWNSGALTSGVHTFPAVLQSSGLYSLSSVVTVPSSSLGTQTYICNVNHKPSNTKVDKKVEPKSCGGGGSGGGGSGGGGSGGGGSQAVVTQEPSLTVSPGGTVTLTCRSSTGAVTTSNYANWVQQKPGQAPRGLIGGTNKRAPWTPARFSGSLLGGKAALTITGAQAEDEADYYCALWYSNLWVFGGGTKLTVLGGGGSDKTHTCPPCPAPELLGPSVFLFPPKPKDTLMISRTPEVTCVVVDVSHEDPEVKFNWYVDGVEVHNAKTKPREEQYNSTYRVVSVLTVLHQDWLNGKEYKCKVSNKALGAPIEKTISKAKGQPREPQVYTLPPSREEMTKNQVSLSCAVKGFYPSDIAVEWESNGQPENNYKTTPPVLDSDGSFFLVSKLTVDKSRWQQGNVFSCSVMHEALHNRFTQKSLSLSPGKGGGGSGGGGSGGGGSGGGGSDIQMTQSPSSLSASVGDRVTITCRASQDIRSNLNWYQQKPGGAVKLLIYYTSRLHSGVPSRFSGSGSGTDYTLTISSLQPEDFATYFCQQSEKLPRTFGGGTKVEIR
light: SYVLTQPPSVSVAPGQTARITCGGNNIGSKSVHWYQQPPGQAPVVVVYDDSDRPSGIPERFSGSNSGNTATLTISRVEAGDEAVYYCQVWDSSSDHVVFGGGTKLTVLGQPKAAPSVTLFPPSSEELQANKATLVCLISDFYPGAVTVAWKGDSSPVKAGVETTTPSKQSNNKYAASSYLSLTPEQWKSHRSYSCQVTHEGSTVEKTVAPTECS
notes: Multi-specific (tri-specific) antibody with three different chains HC1, HC2, LC1; also called BCMA(b) /CD3 /CD137
For the molecule B1, the binding result in assay [1] and in assay [2] was “binds” throughout.

B2: Ly3106 (BCMA/CD3/PD-L1) (other)
heavy 1: QLQLQESGPGLVKPSETLSLTCTVSGGSISSGSYFWGWIRQPPGKGLEWIGSIYYSGITYYNPSLKSRVTISVDTSKNQFSLKLSSVTAADTAVYYCARHDGAVAGLFDYWGQGTLVTVSSASTKGPSVFPLAPSSKSTSGGTAALGCLVKDYFPEPVTVSWNSGALTSGVHTFPAVLQSSGLYSLSSVVTVPSSSLGTQTYICNVNHKPSNTKVDKKVEPKSCGGGGSGGGGSGGGGSGGGGSEVQLVESGGGLVQPGGSLRLSCAASGFTFSTYAMNWVRQAPGKGLEWVGRIRSKYNNYATYYADSVKGRFTISRDDSKNSLYLQMNSLKTEDTAVYYCVRHGNFGNSYVSWFAYWGQGTLVTVSSGGGGSDKTHTCPPCPAPELLGPSVFLFPPKPKDTLMISRTPEVTCVVVDVSHEDPEVKFNWYVDGVEVHNAKTKPREEQYNSTYRVVSVLTVLHQDWLNGKEYKCKVSNKALGAPIEKTISKAKGQPREPQVYTLPPSREEMTKNQVSLWCLVKGFYPSDIAVEWESNGQPENNYKTTPPVLDSDGSFFLYSKLTVDKSRWQQGNVFSCSVMHEALHNHYTQKSLSLSPGKGGGGSGGGGSGGGGSGGGGSQVQLVQSGAEVKKPGASVKVSCKASGYTFTDFWMSWVRQAPGQGLEWMGQIYPNTGTTHSNEKFKGRVTMTRDTSTSTVYMELSSLRSEDTAVYYCARSYHISTTPNWFAYWGQGTLVTVSS
heavy 2: QLQLQESGPGLVKPSETLSLTCTVSGGSISSGSYFWGWIRQPPGKGLEWIGSIYYSGITYYNPSLKSRVTISVDTSKNQFSLKLSSVTAADTAVYYCARHDGAVAGLFDYWGQGTLVTVSSASTKGPSVFPLAPSSKSTSGGTAALGCLVKDYFPEPVTVSWNSGALTSGVHTFPAVLQSSGLYSLSSVVTVPSSSLGTQTYICNVNHKPSNTKVDKKVEPKSCGGGGSGGGGSGGGGSGGGGSQAVVTQEPSLTVSPGGTVTLTCRSSTGAVTTSNYANWVQQKPGQAPRGLIGGTNKRAPWTPARFSGSLLGGKAALTITGAQAEDEADYYCALWYSNLWVFGGGTKLTVLGGGGSDKTHTCPPCPAPELLGPSVFLFPPKPKDTLMISRTPEVTCVVVDVSHEDPEVKFNWYVDGVEVHNAKTKPREEQYNSTYRVVSVLTVLHQDWLNGKEYKCKVSNKALGAPIEKTISKAKGQPREPQVYTLPPSREEMTKNQVSLSCAVKGFYPSDIAVEWESNGQPENNYKTTPPVLDSDGSFFLVSKLTVDKSRWQQGNVFSCSVMHEALHNRFTQKSLSLSPGKGGGGSGGGGSGGGGSGGGGSDIQMTQSPSSLSASVGDRVTITCKASQNVYKKLEWYQQKPGKVPKVLIYHTNILQTGVPSRFSGSGSGTDYTLTISSLQPEDVATYYCYQWNSGPTFGGGTKVEIK
light: B1 light
notes: Multi-specific (tri-specific) antibody with three different chains HC1, HC2, LC1; also called BCMA(b) /CD3 /PD-L1
Consider B2, for which the binding result in assay [1] and in assay [3] was “binds” each time.

B3: Ly2949 (BCMA/CD3/CD137) (other)
heavy 1: QVQLVQSGAEVKKPGASVKVSCKASGYTFTNHIIHWVRQAPGQGLEWMGYINPYPGYHAYNEKFQGRATMTSDTSTSTVYMELSSLRSEDTAVYYCARDGYYRDTDVLDYWGQGTLVTVSSASTKGPSVFPLAPSSKSTSGGTAALGCLVKDYFPEPVTVSWNSGALTSGVHTFPAVLQSSGLYSLSSVVTVPSSSLGTQTYICNVNHKPSNTKVDKKVEPKSCGGGGSGGGGSGGGGSGGGGSEVQLVESGGGLVQPGGSLRLSCAASGFTFSTYAMNWVRQAPGKGLEWVGRIRSKYNNYATYYADSVKGRFTISRDDSKNSLYLQMNSLKTEDTAVYYCVRHGNFGNSYVSWFAYWGQGTLVTVSSGGGGSDKTHTCPPCPAPELLGPSVFLFPPKPKDTLMISRTPEVTCVVVDVSHEDPEVKFNWYVDGVEVHNAKTKPREEQYNSTYRVVSVLTVLHQDWLNGKEYKCKVSNKALGAPIEKTISKAKGQPREPQVYTLPPSREEMTKNQVSLWCLVKGFYPSDIAVEWESNGQPENNYKTTPPVLDSDGSFFLYSKLTVDKSRWQQGNVFSCSVMHEALHNHYTQKSLSLSPGKGGGGSGGGGSGGGGSGGGGSQVQLVQSGAEVKKPGASVKVSCKASGYTFAGFEMHWVRQAPGQGLEWMGAIDPKTGGTDYNQKFKDRVTMTRDTSISTAYMELSRLRSDDTAVYYCARDLGYFDVWGQGTLVTVSS
heavy 2: QVQLVQSGAEVKKPGASVKVSCKASGYTFTNHIIHWVRQAPGQGLEWMGYINPYPGYHAYNEKFQGRATMTSDTSTSTVYMELSSLRSEDTAVYYCARDGYYRDTDVLDYWGQGTLVTVSSASTKGPSVFPLAPSSKSTSGGTAALGCLVKDYFPEPVTVSWNSGALTSGVHTFPAVLQSSGLYSLSSVVTVPSSSLGTQTYICNVNHKPSNTKVDKKVEPKSCGGGGSGGGGSGGGGSGGGGSQAVVTQEPSLTVSPGGTVTLTCRSSTGAVTTSNYANWVQQKPGQAPRGLIGGTNKRAPWTPARFSGSLLGGKAALTITGAQAEDEADYYCALWYSNLWVFGGGTKLTVLGGGGSDKTHTCPPCPAPELLGPSVFLFPPKPKDTLMISRTPEVTCVVVDVSHEDPEVKFNWYVDGVEVHNAKTKPREEQYNSTYRVVSVLTVLHQDWLNGKEYKCKVSNKALGAPIEKTISKAKGQPREPQVYTLPPSREEMTKNQVSLSCAVKGFYPSDIAVEWESNGQPENNYKTTPPVLDSDGSFFLVSKLTVDKSRWQQGNVFSCSVMHEALHNRFTQKSLSLSPGKGGGGSGGGGSGGGGSGGGGSDIQMTQSPSSLSASVGDRVTITCRASQDIRSNLNWYQQKPGGAVKLLIYYTSRLHSGVPSRFSGSGSGTDYTLTISSLQPEDFATYFCQQSEKLPRTFGGGTKVEIR
light: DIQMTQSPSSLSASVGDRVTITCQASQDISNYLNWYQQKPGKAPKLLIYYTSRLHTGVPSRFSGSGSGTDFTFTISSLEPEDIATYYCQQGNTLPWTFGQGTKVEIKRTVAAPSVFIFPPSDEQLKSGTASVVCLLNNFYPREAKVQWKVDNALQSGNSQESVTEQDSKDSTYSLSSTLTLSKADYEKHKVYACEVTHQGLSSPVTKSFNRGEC
notes: Multi-specific (tri-specific) antibody with three different chains HC1, HC2, LC1; also called BCMA(a) /CD3 /CD137; anti-BCMA/CD3/CD137 multi-specific antibody
As for B3, the binding result in assay [1], in assay [2] and in assay [4] was “binds” in each case.

The values above are taken from EP4806922A2 (Lyvgen Biopharma Holdings Limited, dated 2026).
